# Measured values from patent US20230416363A1 (KADMON, published 2023).
# Numbering of substitutions follows the chain as printed. Where two headings read alike, the source gives them in different places.
# B1: 39B3 (antibody, V domains shown)
# VH: EVQLLESGGGLVQPGGSLRLSCAASGFTFSSYWMSWVRQAPGKGLEWVSAISGSGGSTYYADSVKGRFTISRDNSKNTLYLQMNSLRAEDTAVYYCASSPLQWVDVWGQGTTVTVSS
# VL: DIQMTQSPSSLSASVGDRVTITCRASQSIGPWLAWYQQKPGKAPKLLIYDASNLETGVPSRFSGSGSGTDFTLTISSLQPEDFATYYCQQANSFPFTFGPGTKVDIK
# B2: 38A11 (antibody, V domains shown)
# VH: B1 VH
# VL: B1 VL with G30S, P31S, N53T, E55Q, T56S, A91G
# B3: 23A8 (antibody, human IgG1, V domains shown)
# VH: EVQLLESGGGLVQPGGSLRLSCAASGFTFSSSAMHWVRQAPGKGLEWVSGISGSGSSTYYADSVKGRFTISRDNSKNTLYLQMNSLRAEDTAVYYCARDNNYYYYMDVWGKGTTVTVSS
# VL: DIQMTQSPSSLSASVGDRVTITCRASQSIGTWLAWYQQKPGKAPKLLIYAASTLRSGVPSRFSGSGSGTDFTLTISSLQPEDFATYYCQQSYSTPYTFGQGTKLEIK
# B4: 19B10 (antibody, human IgG1, V domains shown)
# VH: EVQLLESGGGLVQPGGSLRLSCAASGFTFSSYAMHWVRQAPGKGLEWVSGISNSGGNTYYADSVKGRFTISRDNSKNTLYLQMNSLRAEDTAVYYCARDNYYYYMDVWGKGTTVTVSS
# VL: B3 VL with I29V, G30S, T53N, R55E, S56T, S91T
# B5: 19B6 (antibody, V domains shown)
# VH: QVQLVQSGAEVKKPGASVKVSCKASGYTFTGYYMHWVRQAPGQGLEWMGIINPSGGSTSYAQKFQGRVTMTRDTSTSTVYMELSSLRSEDTAVYYCAKTAGYDWLPSGLGMDVWGQGTTVTVSS
# VL: B3 VL with G30N, T31S, A50Y, T53S, R55Q, S91G, T94V, Y96L, T97S
# B6: 33G8 (antibody, V domains shown)
# VH: QVQLVQSGAEVKKPGSSVKVSCKASGGTFSSSVISWVRQAPGQGLEWMGGIIPIFGTANYAQKFQGRVTITADESTSTAYMELSSLRSEDTAVYYCAREGLGCSGGSCYSGYYYGMDVWGQGTTVTVSS
# VL: DIVMTQSPLSLPVTPGEPASISCRSSQSLLHSNGYNYLDWYLQKPGQSPQLLIYQASTLGSGVPDRFSGSGSGTDFTLKISRVEAEDVGVYYCMQGTHWPYTFGQGTKLEIK
# B7: 34C1 (antibody, V domains shown)
# VH: B6 VH
# VL: DIVMTQSPLSLPVTPGEPASISCRSSESLLYSNGNTYLDWYLQKPGQSPQLLIYEVSNRASGVPDRFSGSGSGTDFTLKISRVEAEDVGVYYCMQGTRWPYTFGQGTKVEIK
# B8: 23A11 (antibody, human IgG1, V domains shown)
# VH: QVQLVQSGAEVKKPGSSVKVSCKASGYTFTDYSLHWVRQAPGQGLEWMGEVIPMFDTAYYAQTFQGRVTITADESTSTAYMELSSLRSEDTAVYYCAREPFTMVRGGRYYYYGMDVWGQGTTVTVSS
# VL: DIQMTQSPSSLSASVGDRVTITCRASQNINKNLNWYQQKPGKAPKLLIYDASNLQSGVPSRFSGSGSGTDFTLTISSLQPEDFATYYCQHSETFGQGTKVEIK
# Tests used:
# hPD-1-Fc [1] = target: T1, hPD-1-Fc (human, UniProt Q15116 25-167); assay: ELISA, hPD-1-Fc coated
# T1 construct: domain: IgV domain; also called human PD-1-Fc; not shown: human IgG1 Fc
# hPD-1-his [2] = target: T2, hPD-1-his (human, UniProt Q15116 25-167); assay: ELISA, PD-1-his on anti-his
# T2 construct: domain: IgV domain; monomer in solution; biotin-labelled where captured by streptavidin; also called biotin-hPD-1-his
# hPD-1-his [3] = target: T2, hPD-1-his; assay: ELISA, PD-1-his on streptavidin
# hPD-1-Fc [4] = target: T1, hPD-1-Fc; assay: blocking ELISA, hPD-1 to hPD-L1; design: unit not given here
# hPD-1-Fc [5] = target: T1, hPD-1-Fc; assay: SPR Biacore T200, PD-1-Fc immobilised
# hPD-1-his [6] = target: T2, hPD-1-his; assay: SPR Biacore T200, PD-1-his immobilised
# hPD-1-Fc [7] = target: T1, hPD-1-Fc; assay: ELISA, hPD-1-Fc coated; remark: listed apart in the source
# [8] = target: T3, human PD-1 expressed on cells (human, UniProt Q15116 25-288); assay: cell-based or functional assay
# hPD-1-his [9] = target: T2, hPD-1-his; assay: ELISA, captured hPD-1-his
# [10] = target: T3, human PD-1 expressed on cells; assay: flow cytometry, hPD1-293 cells
# hPD-1-Fc [11] = target: T1, hPD-1-Fc; assay: blocking ELISA, hPD-1-Fc to hPD-L1-Fc
# [12] = target: T3, human PD-1 expressed on cells; assay: flow cytometry, SEB-activated PBMC donor three
# [13] = target: T3, human PD-1 expressed on cells; assay: flow cytometry, SEB-activated PBMC donor one
# hPD-1-Fc [14] = target: T1, hPD-1-Fc; assay: ELISA, hPD1-Fc coated
# hPD-1-his [15] = target: T2, hPD-1-his; assay: ELISA, hPD-1-his on anti-his
# hPD-1-Fc [16] = target: T1, hPD-1-Fc; assay: blocking ELISA, hPD-1-Fc to hPD-L1-Fc; remark: listed apart in the source
# hPD-1-his [17] = target: T2, hPD-1-his; assay: ELISA, biotin-hPD-1-his on streptavidin
# T3 sequence (Q15116 25-288): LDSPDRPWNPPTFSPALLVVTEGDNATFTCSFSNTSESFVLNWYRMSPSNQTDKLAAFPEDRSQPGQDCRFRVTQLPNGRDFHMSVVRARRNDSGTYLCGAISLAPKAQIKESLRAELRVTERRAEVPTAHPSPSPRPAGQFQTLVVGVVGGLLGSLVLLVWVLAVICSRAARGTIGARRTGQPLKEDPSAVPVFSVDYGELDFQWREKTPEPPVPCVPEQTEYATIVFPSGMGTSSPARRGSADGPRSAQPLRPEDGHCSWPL
# T2 sequence (Q15116 other isoform, or with tags, fused parts or gaps limits assumed): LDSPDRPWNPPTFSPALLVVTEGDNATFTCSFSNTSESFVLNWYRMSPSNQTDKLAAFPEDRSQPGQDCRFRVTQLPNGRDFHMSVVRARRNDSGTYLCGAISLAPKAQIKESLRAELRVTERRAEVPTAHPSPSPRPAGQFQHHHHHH
# T1 sequence (Q15116 25-167 limits assumed): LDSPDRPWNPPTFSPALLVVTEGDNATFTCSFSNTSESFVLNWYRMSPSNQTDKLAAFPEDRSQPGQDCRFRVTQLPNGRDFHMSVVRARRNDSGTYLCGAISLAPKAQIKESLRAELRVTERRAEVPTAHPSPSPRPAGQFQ
Binder,EC50 (hPD-1-Fc [7]),OD at 10 nM (hPD-1-Fc [7]),EC50 (hPD-1-his [9]),OD at 10 nM (hPD-1-his [9]),MFI at 68 nM [10],IC50 (hPD-1-Fc [11]),Inhibition % (3.3 nM) (hPD-1-Fc [11]),Inhibition % (30 nM) (hPD-1-Fc [11]),EC50 [12],MFI at 100 nM [12],EC50 [13],MFI at 100 nM [13],further results
B1,,,,,,,,,,,,,OD at 10 nM (hPD-1-Fc [1]): 1.08 OD; OD at 10 nM (hPD-1-his [2]): 0.617 OD; OD at 10 nM (hPD-1-his [3]): 0.963 OD; Inhibition at 50 nM (hPD-1-Fc [4]): 92.9
B2,,,,,,,,,,,,,OD at 10 nM (hPD-1-Fc [1]): 1.03 OD; OD at 10 nM (hPD-1-his [2]): 0.447 OD; OD at 10 nM (hPD-1-his [3]): 1.07 OD; Inhibition at 50 nM (hPD-1-Fc [4]): 93.2; Kd (hPD-1-Fc [5]): 1.02 nM; Kd (hPD-1-his [6]): 4.93 nM
B3,0.135 nM,1.74 OD450,0.523 nM,1.15 OD450,105 MFI,1.85 nM,80.5%,93.1%,1.89 nM,80.3 MFI,1.51 nM,19.9 MFI,"EC 50, Promega PD-1/PD-L1 blockade bioassay [8]: 4.73 µg/mL; Fold of induction [8]: 2.81 fold; EC50 [10]: 0.299 nM"
B4,0.188 nM,1.73 OD450,5.34 nM,0.38 OD450,45.1 MFI,28.1 nM,22.9%,65.2%,104 nM,25.2 MFI,117 nM,12.4 MFI,EC50 [10]: 16 nM
B5,0.168 nM,1.81 OD450,> 100 nM,0.3 OD450,20.8 MFI,2.69 nM,51.9%,85.9%,10.7 nM,51.2 MFI,13.6 nM,13.7 MFI,"EC 50, Promega PD-1/PD-L1 blockade bioassay [8]: 2.13 µg/mL; Fold of induction [8]: 3.04 fold"
B6,,,,,,,,,,,,,EC50 (hPD-1-Fc [14]): 0.113 nM; OD450 at 10 nM (hPD-1-Fc [14]): 0.9 OD450; EC50 (hPD-1-his [15]): 0.149 nM; OD450 at 10 nM (hPD-1-his [15]): 0.487 OD450; IC50 (hPD-1-Fc [16]): 1.81 nM; Inhibition % at 5.6 nM (hPD-1-Fc [16]): 89.9%; Inhibition % at 50 nM (hPD-1-Fc [16]): 90.5%; EC50 (hPD-1-his [17]): 0.197 nM; OD450 at 10 nM (hPD-1-his [17]): 0.909 OD450
B7,,,,,,,,,,,,,EC50 (hPD-1-Fc [14]): 0.147 nM; OD450 at 10 nM (hPD-1-Fc [14]): 0.926 OD450; EC50 (hPD-1-his [15]): 0.0866 nM; OD450 at 10 nM (hPD-1-his [15]): 0.521 OD450; IC50 (hPD-1-Fc [16]): 2.01 nM; Inhibition % at 5.6 nM (hPD-1-Fc [16]): 89.1%; Inhibition % at 50 nM (hPD-1-Fc [16]): 89.3%; EC50 (hPD-1-his [17]): 0.233 nM; OD450 at 10 nM (hPD-1-his [17]): 0.945 OD450
B8,0.167 nM,2.04 OD450,1 nM,0.27 OD450,21.8 MFI,2.61 nM,54.9%,86.6%,13.4 nM,46.2 MFI,19 nM,14.6 MFI,
